In publication PMC9209446, “Structural basis of template strand deoxyuridine promoter recognition by a viral RNA polymerase”:

Target: AR9 nvRNAP promoter-specificity subunit gp226 (sigma-like);AR9 nvRNAP betaN subunit gp105;AR9 nvRNAP betaC … (Bacillus phage AR9 (Bacillus subtilis …, UniProt A0A172JIC8;A0A172JI16;A0A172JHZ2;A0A172JIH0;A0A172JI62 …, ||||))
Assay: X-ray crystallography; crystals from 150 mM MIB pH 5, 150 mM LiCl, 13% PEG 1500; 4 mM MgCl2 in DNA annealing buffer; Complex for structures: 34 uM holoenzyme + 50 uM DNA, 30 min at room temperature; DNA annealed in 20 mM Bis-tris propane pH 6.8, 100 mM NaCl, 4 mM MgCl2, 0.5 mM EDTA; crystallized at 19 C
Settings: protein: recombinant;recombinant;recombinant;recombinant;recombinant; tags: ;;;;; copies: 1;1;1;1;1; 14 bp duplex with 18 nt 3' overhang on strand 1

B1: P077 promoter forked oligonucleotide, template [-16;+16] all U / non-template [+3;+16] (dsDNA)
DNA 1: CTCCAATATGTGATATAATATAUUGUUUATTG
DNA 2: ATCACATATTGGAG
modifications: deoxyuridine at the printed U positions of strand 1; both strands DNA
B1: binds.
